# T1: TNFR2-Fc (also known as Etarnercept, U.S. Pat. No. 5,447,851) (human, UniProt P20333 23-257)
# T1 construct: range 23-257; The ELISAs and photograph assays name TNFR2-Fc; the SPR and MTT assays name ENBREL®; also called TNFR2-Fc (1-257); ENBREL®; not shown: Fc of human IgG
# T1 sequence (looked up): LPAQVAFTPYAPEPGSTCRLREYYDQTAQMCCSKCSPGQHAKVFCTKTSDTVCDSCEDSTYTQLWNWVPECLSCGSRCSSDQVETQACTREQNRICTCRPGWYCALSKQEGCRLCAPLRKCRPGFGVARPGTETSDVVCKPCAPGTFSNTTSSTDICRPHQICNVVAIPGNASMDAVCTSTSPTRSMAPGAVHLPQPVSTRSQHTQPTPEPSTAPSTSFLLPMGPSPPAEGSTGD
# Tests used:
# [1] = target: VEGF-A165 (produced from CHO cell) (UniProt P15692); experiment: SPR, BIAcore 3000, VEGF-A immobilized on CM5 chip
# [2] = target: T1, TNFR2-Fc (also known as Etarnercept, …); experiment: ELISA, VEGF-A coated on the plate, Fc fusion protein 0.01-10 nM, detection with anti-human Fc-HRP, OD 415
# Experimental: After washing the plate 3 times with each 400 μl of PBS, a blocking was performed with the blocking solution (1% BSA in 100 μl PBS) at 37° C. for 2 hour. […] After washing the plate 3 times with each 400 μl of PBS, 50 μl of 3,3′,5,5′-tetramethylbenzidine (TMB) solution (Sigma-Aldrich T0440) was added into the plate, and were incubated at room temperature for 10 min.
# Chain of VEGF-Trap (Fc fusion) (chain): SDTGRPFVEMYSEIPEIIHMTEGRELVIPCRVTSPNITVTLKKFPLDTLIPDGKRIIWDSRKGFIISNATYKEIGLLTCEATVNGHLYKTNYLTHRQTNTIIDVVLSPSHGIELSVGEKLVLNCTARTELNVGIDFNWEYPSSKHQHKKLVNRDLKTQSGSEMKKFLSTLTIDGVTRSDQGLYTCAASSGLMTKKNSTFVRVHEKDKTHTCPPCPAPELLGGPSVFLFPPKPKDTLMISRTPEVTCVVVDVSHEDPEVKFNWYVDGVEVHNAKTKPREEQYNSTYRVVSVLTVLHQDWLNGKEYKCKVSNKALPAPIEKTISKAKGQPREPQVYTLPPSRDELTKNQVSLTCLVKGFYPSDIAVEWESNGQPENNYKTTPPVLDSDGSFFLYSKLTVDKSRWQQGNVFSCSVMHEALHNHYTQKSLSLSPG
Kd [1],binding result [2],Molecule
1.35 pM,,VEGF-Trap (Fc fusion)
,no binding (tested: 10 nM),"VEGF-A165 (produced from CHO cell) (ligand, UniProt P15692-4 27-191, looked up) APMAEGGGQNHHEVVKFMDVYQRSYCHPIETLVDIFQEYPDEIEYIFKPSCVPLMRCGGCCNDEGLECVPTEESNITMQIMRIKPHQGQHIGEMSFLQHNKCECRPKKDRARQENPCGPCSERRKHLFVQDPQTCKCSCKNTDSRCKARQLELNERTCRCDKPRR"
